From PMC3390394

Tests used:
[1] = biological target: Arabidopsis thaliana dihydrodipicolinate synthase 2 (At-DHDPS2) (Arabidopsis thaliana) (UniProt Q9FVC8); test: SEC-MALS; Malvern P3000 column with Viscotek TDA (refractive index, low angle and right angle light scattering); 100 µL of 1.0 mg/mL; 20 mM Tris-HCl, 150 mM NaCl, pH 8.0; 28°C
[2] = biological target: Arabidopsis thaliana dihydrodipicolinate synthase 2 (At-DHDPS2) (Arabidopsis thaliana) (UniProt Q9FVC8); test: AUC; sedimentation velocity, c(s) analysis (SEDFIT); 20 mM Tris-HCl, 150 mM NaCl, pH 8.0, 20°C; At-DHDPS2 at 0.75 mg/mL, 50,000 rpm; At-DHDPR2 at 0.1-1.6 mg/mL, 40,000 rpm

Chain of Arabidopsis thaliana dihydrodipicolinate synthase 2 (At-DHDPS2) (Q9FVC8 40-365): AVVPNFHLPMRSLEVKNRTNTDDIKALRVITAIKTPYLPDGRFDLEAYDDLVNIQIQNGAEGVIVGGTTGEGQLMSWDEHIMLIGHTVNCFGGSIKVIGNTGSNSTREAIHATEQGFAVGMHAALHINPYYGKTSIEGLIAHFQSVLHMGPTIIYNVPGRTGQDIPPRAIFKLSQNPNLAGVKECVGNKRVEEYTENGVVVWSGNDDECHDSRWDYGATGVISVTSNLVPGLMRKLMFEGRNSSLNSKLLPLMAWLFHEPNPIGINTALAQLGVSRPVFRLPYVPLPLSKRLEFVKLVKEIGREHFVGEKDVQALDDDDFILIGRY

stoichiometry N [1]: 4
stoichiometry N [2]: 4
Substance: Arabidopsis thaliana dihydrodipicolinate synthase 2 (At-DHDPS2) (from UniProt Q9FVC8 40-365) (enzyme)
